# Positions count from the first letter of the chain named.
# T1: human EphA1 (Homo sapiens, UniProt P21709)
# T1 construct: a protein of the extracellular region of each human Eph receptor fused with the SEAP protein and the His tag; made in house; host or cells: Expi293F cells (culture supernatant)
# T1 sequence (P21709 26-547 limits assumed): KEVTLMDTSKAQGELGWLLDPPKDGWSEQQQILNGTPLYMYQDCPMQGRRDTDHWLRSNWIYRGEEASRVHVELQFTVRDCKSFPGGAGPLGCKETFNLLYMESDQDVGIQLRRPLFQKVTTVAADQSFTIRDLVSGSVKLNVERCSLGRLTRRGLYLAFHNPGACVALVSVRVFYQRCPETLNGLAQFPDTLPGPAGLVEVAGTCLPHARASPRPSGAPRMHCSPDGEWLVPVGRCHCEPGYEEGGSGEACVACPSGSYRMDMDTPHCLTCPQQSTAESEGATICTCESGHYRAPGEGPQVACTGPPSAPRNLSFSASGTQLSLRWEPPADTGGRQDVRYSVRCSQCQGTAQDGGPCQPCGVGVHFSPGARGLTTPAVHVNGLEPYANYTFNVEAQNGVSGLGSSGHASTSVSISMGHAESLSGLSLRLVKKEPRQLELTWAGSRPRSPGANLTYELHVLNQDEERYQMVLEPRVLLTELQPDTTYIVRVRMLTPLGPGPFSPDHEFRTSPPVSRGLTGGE
# T2: human EphB4 (Homo sapiens, UniProt P54760)
# T2 construct: a protein of the extracellular region of each human Eph receptor fused with the SEAP protein and the His tag; made in house; host or cells: Expi293F cells
# T2 sequence (P54760 16-539 limits assumed): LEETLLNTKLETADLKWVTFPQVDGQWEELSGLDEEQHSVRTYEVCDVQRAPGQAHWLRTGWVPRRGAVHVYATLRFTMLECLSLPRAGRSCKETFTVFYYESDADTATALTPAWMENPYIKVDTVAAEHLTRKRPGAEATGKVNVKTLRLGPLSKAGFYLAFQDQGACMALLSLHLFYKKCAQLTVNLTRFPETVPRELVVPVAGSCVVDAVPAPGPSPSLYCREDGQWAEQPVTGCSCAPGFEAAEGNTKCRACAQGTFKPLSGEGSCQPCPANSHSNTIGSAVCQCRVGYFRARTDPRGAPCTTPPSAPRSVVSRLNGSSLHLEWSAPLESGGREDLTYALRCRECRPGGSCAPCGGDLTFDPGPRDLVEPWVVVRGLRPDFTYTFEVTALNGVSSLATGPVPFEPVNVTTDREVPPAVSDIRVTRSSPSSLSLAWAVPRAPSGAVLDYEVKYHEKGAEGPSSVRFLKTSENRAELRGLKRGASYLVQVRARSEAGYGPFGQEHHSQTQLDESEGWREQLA
# B1: 140 (antibody, V domains shown)
# VH: QVQLVQSGSELKKPGASVKVSCKASGYTFTDYSMHWVRQAPGQGLKWMGWINTETGEPTYAQGFTGRFVFSLDTSVSTAYLQISSLKAEDTAVYYCARIPLYYYGSRYWYFDVWGQGTTVTVSS
# VL: DIQMTQSPSSLSASVGDRVTITCRASENIYRNLAWYQQKPGKAPKLLVYAATNLADGVPSRFSGSGSGTDYTLTISSLQPEDFATYYCQHFWGTPWTFGQGTKVEIK
# modifications: synthetic humanized antibody heavy chain variable region sequence; synthetic humanized antibody light chain variable region sequence
# B2: 157 (antibody, V domains shown)
# VH: B1 VH with K46E
# VL: B1 VL with K45Q, V48L
# modifications: synthetic humanized antibody heavy chain variable region sequence; synthetic humanized antibody light chain variable region sequence
# B3: 145 (antibody, V domains shown)
# VH: B1 VH with Q62D, G63D, T65K
# VL: B1 VL with V48L, P80S
# modifications: synthetic humanized antibody heavy chain variable region sequence; synthetic humanized antibody light chain variable region sequence
# B4: 153 (antibody, V domains shown)
# VH: B1 VH
# VL: B1 VL with V48L, P80S
# modifications: synthetic humanized antibody heavy chain variable region sequence; synthetic humanized antibody light chain variable region sequence
# B5: 154 (antibody, V domains shown)
# VH: B1 VH with K46E, Q62D, G63D, T65K
# VL: B1 VL with V48L, P80S
# modifications: synthetic humanized antibody heavy chain variable region sequence; synthetic humanized antibody light chain variable region sequence
# B6: 151 (antibody, V domains shown)
# VH: B1 VH with V2I
# VL: B1 VL with V48L, P80S
# modifications: synthetic humanized antibody heavy chain variable region sequence; synthetic humanized antibody light chain variable region sequence
# B7: 143 (antibody, V domains shown)
# VH: B1 VH with V2I, Q62D, G63D, T65K
# VL: B1 VL
# modifications: synthetic humanized antibody heavy chain variable region sequence; synthetic humanized antibody light chain variable region sequence
# B8: 155 (antibody, V domains shown)
# VH: B1 VH with V2I, Q62D, G63D, T65K
# VL: B1 VL with V48L, P80S
# modifications: synthetic humanized antibody heavy chain variable region sequence; synthetic humanized antibody light chain variable region sequence
# B9: 152 (antibody, V domains shown)
# VH: B1 VH with K46E
# VL: B1 VL with V48L, P80S
# modifications: synthetic humanized antibody heavy chain variable region sequence; synthetic humanized antibody light chain variable region sequence
# B10: 141 (antibody, V domains shown)
# VH: B1 VH with K46E, Q62D, G63D, T65K
# VL: B1 VL
# modifications: synthetic humanized antibody heavy chain variable region sequence; synthetic humanized antibody light chain variable region sequence
# B11: 158 (antibody, V domains shown)
# VH: B1 VH
# VL: B1 VL with K45Q, V48L
# modifications: synthetic humanized antibody heavy chain variable region sequence; synthetic humanized antibody light chain variable region sequence
# B12: 138 (antibody, V domains shown)
# VH: B1 VH with V2I
# VL: B1 VL
# modifications: synthetic humanized antibody heavy chain variable region sequence; synthetic humanized antibody light chain variable region sequence
# B13: 142 (antibody, V domains shown)
# VH: B1 VH with Q62D, G63D, T65K
# VL: B1 VL
# modifications: synthetic humanized antibody heavy chain variable region sequence; synthetic humanized antibody light chain variable region sequence
# Biological target: T1, human EphA1
# Assay: Selectivity ELISA of humanized antibodies for human Eph receptor
# Type: binding
# Details: coated protein 1 nM
# Method in brief: (§1)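 Capture ELISA: anti-6-His coat, 1% BlockAce block, Eph ECD-SEAP-His (1 nM final, Expi293F supernatant) 1 h RT, humanized Ab 1 h RT, HRP anti-IgG 1 h RT, TMB, H2SO4 stop, A450.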
row,"hEphA1-SEAP-: absorbance at 450 nm, percentage with respect to hEphA4-SEAP-His as 100%",Molecule
1,5.5%,B1
2,6.2%,B2
3,6.7%,B3
4,6.3%,B4
5,6.4%,B5
6,7.1%,B6
7,6.0%,B7
8,5.5%,B8
9,5.8%,B9
10,5.3%,B10
11,6.5%,B11
12,5.2%,B12
13,5.6%,B13

# Biological target: T3, human EphA4 (Homo sapiens, UniProt P54764)
# T3 construct: made in house; not restated for the human SEAP-His protein
# T3 sequence (P54764 20-547): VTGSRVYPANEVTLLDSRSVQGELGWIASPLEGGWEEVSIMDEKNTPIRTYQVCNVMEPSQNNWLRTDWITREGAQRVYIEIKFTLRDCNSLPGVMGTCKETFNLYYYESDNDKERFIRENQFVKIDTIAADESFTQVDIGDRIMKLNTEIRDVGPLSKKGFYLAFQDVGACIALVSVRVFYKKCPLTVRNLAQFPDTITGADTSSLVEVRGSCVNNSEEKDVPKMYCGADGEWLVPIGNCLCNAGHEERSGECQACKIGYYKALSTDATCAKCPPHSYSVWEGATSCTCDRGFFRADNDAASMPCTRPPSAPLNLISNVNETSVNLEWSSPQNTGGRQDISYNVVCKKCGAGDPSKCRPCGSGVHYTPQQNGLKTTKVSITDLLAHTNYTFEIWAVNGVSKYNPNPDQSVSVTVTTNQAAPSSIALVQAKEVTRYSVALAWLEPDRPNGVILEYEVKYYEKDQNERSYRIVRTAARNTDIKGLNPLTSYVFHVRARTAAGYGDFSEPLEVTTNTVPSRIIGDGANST
# Assay: as above
# Type: binding
# Details: coated protein 1 nM; reference set to 100%
# Method in brief: as §1
row,"hEphA4-SEAP-: absorbance at 450 nm, percentage with respect to hEphA4-SEAP-His as 100%",Molecule
1,100%,B1
2,100%,B2
3,100%,B3
4,100%,B4
5,100%,B5
6,100%,B6
7,100%,B7
8,100%,B8
9,100%,B9
10,100%,B10
11,100%,B11
12,100%,B12
13,100%,B13

# Biological target: T2, human EphB4
# Assay: as above
# Type: binding
# Details: coated protein 1 nM
# Method in brief: as §1
row,"hEphB4-SEAP-: absorbance at 450 nm, percentage with respect to hEphA4-SEAP-His as 100%",Molecule
1,5.4%,B1
2,6.5%,B2
3,6.7%,B3
4,6.0%,B4
5,6.4%,B5
6,7.4%,B6
7,5.9%,B7
8,5.7%,B8
9,5.9%,B9
10,5.4%,B10
11,6.5%,B11
12,5.2%,B12
13,5.7%,B13
